This note sets out measurements from patent US20240018247A1 (MUSC FOUNDATION FOR RESEARCH DEVELOPMENT, published 2024).

For assay [1], the target named is T1, human P-selectin (human, UniProt P16109 42-771, limits assumed).
T1 construct: also called human P-selectin antigen
T1 sequence (looked up): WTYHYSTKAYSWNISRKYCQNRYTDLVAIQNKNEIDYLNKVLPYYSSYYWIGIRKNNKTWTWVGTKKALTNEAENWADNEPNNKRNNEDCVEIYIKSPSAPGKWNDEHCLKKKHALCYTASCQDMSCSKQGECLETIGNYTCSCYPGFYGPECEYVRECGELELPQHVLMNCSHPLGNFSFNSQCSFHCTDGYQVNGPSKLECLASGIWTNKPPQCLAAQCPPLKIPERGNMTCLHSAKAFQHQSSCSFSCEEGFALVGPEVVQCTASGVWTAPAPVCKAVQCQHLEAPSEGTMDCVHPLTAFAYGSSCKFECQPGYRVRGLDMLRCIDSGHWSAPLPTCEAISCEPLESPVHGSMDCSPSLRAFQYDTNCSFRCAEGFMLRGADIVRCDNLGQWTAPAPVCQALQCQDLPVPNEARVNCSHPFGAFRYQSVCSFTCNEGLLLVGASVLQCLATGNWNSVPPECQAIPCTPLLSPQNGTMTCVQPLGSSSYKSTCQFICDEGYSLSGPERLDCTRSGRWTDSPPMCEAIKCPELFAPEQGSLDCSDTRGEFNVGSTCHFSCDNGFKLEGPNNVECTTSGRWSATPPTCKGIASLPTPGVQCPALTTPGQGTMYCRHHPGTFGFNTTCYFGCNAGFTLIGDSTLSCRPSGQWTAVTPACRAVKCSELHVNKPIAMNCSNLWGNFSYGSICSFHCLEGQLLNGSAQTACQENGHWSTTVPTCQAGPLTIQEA
Kind of assay: ELISA binding assay on human P-selectin, OD 450. The procedure: To evaluate the ability of B.PselscFv-Crry and NB.PselscFv-Crry to inhibit complement activation, a zymosan A bead assay was performed. Briefly, flow cytometric analysis of C3 deposition on zymosan A particles (SigmaAldrich) was performed and the extent of complement inhibition was normalized by the subtraction of post-IRI complement deposition levels from their baseline levels. Both B.PSelscFv-Crry and NB.PSelscFv-Crry constructs inhibit complement activation in a dose-dependent manner (FIG. 21A). Further, to evaluate the binding of B.PselscFv-Crry and NB.PselscFv-Crry to human P-selectin, an ELISA was performed. Briefly, non-blocking and blocking fusion proteins (NB.PselscFv-Crry and B.PselscFv-Crry, respectively) were plated at varying doses in addition to varying doses of C2-Crry as a negative control.
On the technique in general: ELISA stands for enzyme-linked immunosorbent assay.

The target in assay [2] is T2, P-Selectin-His tag (mouse) (mouse, UniProt Q01102 42-709, limits assumed).
T2 construct: also called mouse P-selectin; mouse antigen P-Selectin; not shown: His tag
T2 sequence (looked up): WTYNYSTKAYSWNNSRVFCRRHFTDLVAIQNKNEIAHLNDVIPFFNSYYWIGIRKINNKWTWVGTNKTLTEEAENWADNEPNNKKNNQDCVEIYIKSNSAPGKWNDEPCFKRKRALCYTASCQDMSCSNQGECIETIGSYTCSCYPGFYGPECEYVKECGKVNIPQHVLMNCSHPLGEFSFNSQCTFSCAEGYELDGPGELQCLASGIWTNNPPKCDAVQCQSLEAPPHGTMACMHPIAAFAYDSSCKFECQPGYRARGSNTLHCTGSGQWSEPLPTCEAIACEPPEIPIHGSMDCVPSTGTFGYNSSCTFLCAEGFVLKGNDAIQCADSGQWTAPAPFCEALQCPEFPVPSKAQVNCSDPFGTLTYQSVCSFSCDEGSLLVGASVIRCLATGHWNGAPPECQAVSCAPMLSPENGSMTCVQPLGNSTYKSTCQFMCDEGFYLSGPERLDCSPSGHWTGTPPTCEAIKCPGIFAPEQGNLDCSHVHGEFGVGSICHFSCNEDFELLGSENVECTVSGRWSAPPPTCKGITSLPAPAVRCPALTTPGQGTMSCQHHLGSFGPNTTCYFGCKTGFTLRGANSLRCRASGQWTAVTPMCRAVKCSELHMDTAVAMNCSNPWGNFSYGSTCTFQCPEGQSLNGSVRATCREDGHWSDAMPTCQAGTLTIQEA
Kind of assay: SPRi (PlexArray HT), mouse P-Selectin-His printed on chip, fusion protein as analyte, 25 C. The procedure: FIG. 20A through FIG. 20C depict a representative experimental evaluation of the binding affinity of mouse antigen P-Selectin to B.PselscFv-Crry and NB.PselscFv-Crry. SPR binding assays were performed to measure binding affinity KD and kinetic parameters ka, kd of B.PselscFv-Crry and NB.PselscFv-Crry. The ligand is P-Selectin-His tag (mouse) which was printed onto the chip. The analytes are B.PselscFv-Crry and NB.PselscFv-Crry. After data collection with SPR and kinetics fitting and analysis, the KD, ka, and kd were calculated. FIG. 20A depicts exemplary kinetics fitting curves of P-Selectin to B.PselscFv-Crry. FIG. 20B depicts exemplary kinetics fitting curves of P-Selectin to NB.PselscFv-Crry.
To measure binding affinity, surface plasmon resonance was used with mouse P-selectin as the immobilized ligand and B.PselscFv-Crry (FIG. 20A) and NB.PselscFv-Crry (FIG. 20B) as the analytes. Various concentrations of P-Selectin dissolved in water were manually printed onto the bare gold-coated (thickness 47 nm) PlexArray Nanocapture Sensor Chip (Plexera Bioscience, Seattle, WA, US) at 40% humidity. Each concentration was printed in replicate, and each spot contained 0.2 μL of sample solution. The chip was incubated in 80% humidity at 4° C. for overnight, and rinsed with 10×PBST for 10 min, 1×PBST for 10 min, and deionized water twice for 10 min. The chip was then blocked with 5% (w/v) non-fat milk in water overnight, and washed with 10×PBST for 10 min, 1×PBST for 10 min, and deionized water twice for 10 min before being dried under a stream of nitrogen prior to use. SPRi measurements were performed with PlexAray HT (Plexera Bioscience, Seattle, WA, US). Collimated light (660 nm) passes through the coupling prism, reflects off the SPR-active gold surface, and is received by the CCD camera. Buffers and samples were injected by a non-pulsatile piston pump into the 30 μL flowcell that was mounted on the coupling prim.

B1: NB.PSelscFv-Crry (anti-pselectin 2.3scFv-Crry, non-blocking) (scFv)
chain: QIQLVLSGPELKKPGESVKISCKASGYTFTTYGMSWVKQAPGKGLKWMGWINTSSGVPTYADDFKGRFAFSLETSASTAYLQINNLKNEDTATYFCARGGGYYGAYYFYYWGQGTTLTVSSGGGGSGGGGSGGGGSDIQMTQSPASLSASVGETVTITCRTSDNINSYLAWYLQRQGKSPQLLVYNAKTLTEGVPSRFSGSGSGTQFSLKINSLQPEDFGSYYCQHHYGPPPTFGGGTKLEIKGGGGSGGGGSCPAPSQLPSAKPINLTDESMFPIGTYLLYECLPGYIKRQFSITCKQDSTWTSAEDKCIRKQCKTPSDPENGLVHVHTGIQFGSRINYTCNQGYRLIGSSSAVCVITDQSVDWDTEAPICEWIPCEIPPGIPNGDFFSSTREDFHYGMVVTYRCNTDARGKALFNLVGEPSLYCTSNDGEIGVWSGPPPQCIELNKCTPPPYVENAVMLSENRSLFSLRDIVEFRCHPGFIMKGASSVHCQSLNKWEPELPSCFKGVICRLPQEMSGFQKGLGMKKEYYYGENVTLECEDGYTLEGSSQSQCQSDGSWNPLLAKCVSRSIIEGRHHHHHH
notes: also called Psel.NB; Psel-NB
Consider B1, for which, in assay [1], the EC50 (read off the curve) – broadly, the concentration at which the effect is half-maximal – was roughly 0.06 µg/mL. Also, in assay [2], the Kd – broadly, the equilibrium constant for the complex coming apart – was determined as 630 nM; the koff (commonly a measure of how fast the partners let go of each other) turned out to be 0.00179 s⁻¹; the kon (as a rule, a measure of how fast the partners come together) was 2840 M⁻¹ s⁻¹.
